# Test results: the nanobody polyreactivity screen of Harvey et al. (2022)
# Assay: yeast display, Sf9 membrane polyspecificity reagent, FACS + sequencing; frameworks hold sequencing errors
# Summary of the method: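 After 36–48 hours of galactose induction, yeast (Saccharomyces cerevisiae BJ5465) displaying a synthetic nanobody library were stained at 4 °C for 1 hour with 10% biotinylated, detergent-solubilized Sf9 membrane reagent. Streptavidin microbeads enriched the stained cells before FACS sorting into low and high (top ~1%) gates on anti-HA and streptavidin fluorescence. Each clone's polyreactivity label reflects its gate of origin.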
row,Sequence,polyreactivity (PSR sort gate)
1,QVQLVESGGVLVQAGGSLRLSCAASGLTFSWYAMGWYRQAPGKERELVASINYSGANTYYADSVKGRFTISRDNAQNTVFLQMNSLKPEDTAVYYCNSRLRRYQNERVTYDYWGQGTQVTVSS,high polyreactivity
2,QVQLVESGGGLVQAGGSLRLSCAASGFTFWTNAMGWYRQAPGKERELVAAITSSGGTTYYADSVKGRFTISRDNAKNTVYLQMNSLKPEDTAVYYCAAELGGYVASYYYPGYDYWGQGTQVTVSS,low polyreactivity
3,QVQLVESGGGLVQAGGSLRLSCAASGSIFTWYAMGWYRQAPGKERELVAAITTSGGSTYYADSVKGRFTISRDNAKNTVYLQMNSLKPEDTAVYYCAKDGDYLFYYYGYDYWGQGTQVTVSS,low polyreactivity
4,QVQLVESGGGLVQAGGSLRLSCAASGRIFYGYSMGWSRQATGKEWELVAAISSSGGSTYYADSVKGRFTISRDNAKNTVSLQRNSVKPEDTAVYYCNAQRYRPGYWYDYWGQGTQVTVSS,high polyreactivity
5,QVQLVESGGGLVQAGGRLRLSCAASGSIFSRNAMGWDRQAPGQERELVAAITRSGGRTYYADSVKGRCTLSRDNAKTTVYLQMNSLKPEDTAVYYCNALASQEYDYWGQGTQVTVSS,high polyreactivity
6,QVQLVESGGGLVQAGGSLRLSCAASGSIGTYVMGWYRQAPGKERELVAAISLSGGSTYYADSVKGRFTISRDNAKNTVYLQMNSLKPEDTAVYYCNAVKATRNTGSDYWGQGTQVTVSS,low polyreactivity
7,QVQLVESGGGLVQAGGSLRLSCAASGRIFWVYAMGWYRQAPGKERELVAAISSTGDGTYYADSVKGRFTISRDNAKNTVYLQMNSLKPVDTAVYYCAADFRVARSPLSGGSDYWGQGTQVTVSS,low polyreactivity
8,QVQLVESGGCLVQAGGSLRLSCAASGLTFSWYAMGWYRQAPGKERELVAAISTRGGRTYYADSVKGRFTISRDNAKNTVYLQMNSLKPEDTAVYYCAAGVSYRYLWLVDYWGQGTQVTVSS,high polyreactivity
9,QVQLVESGGGLVQAGGSLRLSCAASGNTLDVNAMGWYRQAPWKERELVAAITSGGSTNYADSVKGRFTISRDNAKNTVYLQMNSLKPEDTAVYYCAKGSGVTYVNETLNTDYGYWGQGTQVTVSS,low polyreactivity
10,QVQLVESGGGVVQAGGSLRLSCAASGRTFWRYAMGWYRQAPGKERELVAAITSGGGSTYYADSVKGRFTISRDNAKNTVYLQMNSLKPEDTAVYYCNRAGRGSSFKGDYWGQGTQVTVSS,high polyreactivity
11,QVQLVESGGGLVQAGGSLRISCAASGRTFADYAMGWSRQEPGKERELVAAISWSGGSTYYADSVKGRFTISCDNAKNTVYLQMNSLKPEDTAVYYSNAVRQRGYDYWGQGTQVTVSS,low polyreactivity
12,QVQRVEEGRGLVQAGGTLRISCAASGSIFNQYAMGWYRHAPGQERELVAAITASGGSTYYAVSVKGRFTISRDNAKKTVYLQMNCLKPEDPAVYYCAKVELRDSAELGSDEYDYWGQGTQVTVSS,low polyreactivity
13,QVQLVESGGGLVQAGGSLRLSCAASGRTFSVNAMGWYRQAPGKERELVAAITSGGSTYYADSVKGRFTISRDNAKNTVYLQMNSLKPEDTAVYYCNADLEPYDYWGQGTQVTVSS,low polyreactivity
14,QVQLVESGGGLVQAGGSLRLSCAASGRIFVRYTMGWYRQAPGKERELVAAINSGGRTYYADSVKGRFTISRDNAKNTVYLQMNSLKPEDTAVYYCAADRVYYGQRDYWGQGTQVTVSS,high polyreactivity
15,QVQLVESGGGLVQAGGSLRLSCAASGRTFESNAMGWYRQAPGKERELVAAISYGGGTTHYADSVKGRFTISRDNAKNTVYLQMNSLKPEDTAVYYCAADPEHQWESVTIGEYDYWGQGTQVTVSS,low polyreactivity
16,QVQLVESGGGLVQAGGSLRLSCAASGITFFDNAMGWYRQAPGKERELVATITGGGASTYYADSVKGRFTISRDNAKNTVYLLMNSLKPEDTAVYYCAADYVDGVYLEYGYWGQGTQVTVSS,low polyreactivity
17,QVQLVESGGGLVQAGGSLRLSCAASGLIFVSYAMGWYRQAPGKERELVAAISSGGSTYYADSVKGRFTISRDNAKNTVSLQMTSLKPEDTAVYYCNADGFYSWLYDYWGQGTQVTVSS,low polyreactivity
18,QFQLVESGGGLDQAGGSLRLSCAASGRTFHAYAMGSYRQAHGKGRELVAAITRTGTTHYADSVKGRFTISRDNAKNTVFLQMNSLKPEDTAVYYCAAQHVRVAAQFVLQGYDYWGQGTQVTVSS,low polyreactivity
19,QVQLVESGGGLVQAGGSLRLSCAASGRIFTRYAMGWYRQAPGKERELVATISGSGSTNYADSVKGRFTISRDNAKNTVYLQMNSLKPEDTAVYYCNRRSRREYDYWGQGTQVTVSS,low polyreactivity
20,QVQLVESGGGLVQAGGSLRLSCAASGFTFHRYAMGWYRQAPGKERELVAAISSRGGSTYYADSVKGRFTISRDNAKNTVYLQMNSLKPEDTAVYYCAARWPHRYYSSYYGYDYWGQGTQVTVSS,high polyreactivity
21,QVQLVESGGGLVQAGGSLRLSCAASGRSFPWYGMGWYRQAPGKERELVAAISRTGGNTYYADSVKGRFTISRDNAKNTVYLQMNSLKPEDTAVYYCIAGYYSNRSYFYDYGYWGQGTQVTVSS,high polyreactivity
22,QVQLVESGGGLVQAGGSLRLICAASGRTFYPSVMGWYRQAPGKERELVARIRWSGSSTYYADSVKGRFTISRDNAKNTVYLQMNSLKPEDTAVYYCNARPSWYVLGSSVHSGMGYWGQGTQVTVSS,high polyreactivity

row,Sequence,polyreactivity (PSR sort gate)
1,QVQLLESGGCLGLAGASLRLSCAASGSTFSTYAMGWYRPAPGKERELVAAITRRGGRTYYADSVKGRFTISRDNAKNTVYLQMNCLKPEDTAVYSCNVLSGLFVQAEYDYWGQGTKVTVSS,high polyreactivity
2,QVQLVESGGGLVQAGGSLRLSCAASGSTIYDYTMGWYRQAPGKERELVAAISSDGSTYYADSVKGRFTISRDNAKITVYLKMNSLKPEDTAVYYCNADAGFLSLRGYDYWGQGTQVTVSS,low polyreactivity
3,QVQLVESGGGLVQAGGSLRLSCAASGGTFTFKTMGWYRQAPGKERQLVAAISISGGSTYYADSVKGRFTISRDNAKNTVYLQMNSLKPEDTAVYYCAAQYVRTPSPEYDYWGQGTQVTVSS,high polyreactivity
4,QVQLVESGGGLVQAGGSLRLSCAASGRTFGRNAMGWYRPAPGKERELVATITRRGGSTYYADSVKGRFTISRDNAKNTVYLQMYSLKPEDTAVYYCNAGIWLGSFRQRFYYWGQGTQVTVSS,high polyreactivity
5,QVQLVESGGGLVQAGGSLRLSCAASGNTISYYAMGWYRQAPGKERELVAAISANGGSTYYADSVKGRFTISRDNAKNTVYLQMNSLKPEDTAVYYCNRRFLSRNQNEYDYWGQGTQVTVSS,high polyreactivity
6,QVQLVESGGGLVQAGRSLRLICAASGRTFTLNAMRWYRQAPGKERELVDAITWGAGSTYYADSVKGRFTISRDNAKNTVYLQMNSLKPEDTAVYYCAARFHGDYYRYRSPSMYYWGQGSQVTVSS,high polyreactivity
7,QVQLVESGGGLVQAGGSLRLSCAASGFIFQTNVMGGYRQAPGKERELVAAISSGYSTYYADSVKGRFTISRDNAKNTVYLQMNSLKPEDTAVYNCAADVLGTTTTVGGFNYWGQGTQVTVSS,low polyreactivity
8,QVQLQESGGGLAQAGGSLRLSCAASGNIFDADIMGWYRQAPGKERELVGSITDGGSTNYVDSVKGRFTISRDNAKNTVHLQMNSLKPEDTAVYYCAAIAYPDIPTYFDYDSDCFNWGHGTQVTVSS,high polyreactivity
9,QVQLVESGGGLVQAGGSLRLSCAASGRTIRFNAMGWYRQAQGKESELVAAISFSGGNTYYADSVKGRFTISRDNAKNTVYIQMNSLKPDDTAVYYCAARFTYRYYNYLKYDYWGKGTQVTVSS,high polyreactivity
10,QVQLVESGGGLFQAGGSLRLSCAASGSIFNRYAMGWYRQAPGKERELVAAISSGGRTKYADSVKGRFTISRDNAKNTVYLQMNSLKPEDTAVYYCNAAYFLSGTCRTFDYWGQGTQVTVSS,high polyreactivity
11,QVQLVESGGGLVQAGGSLRLSCAASGRTFTFNSMGGYRQAPGKERELFSRIDWRGITYADSVKGRFTISRDNAKYTVYLQMNSLKPEVTAVYYCSATFIQVVVNVQLYDYDYWGQGTQVTVSS,low polyreactivity
12,QVQLVESGGGLVQAGGSLRLSCAASGRIFGINAMGWYRQGPGKERELVAASRSSDVSTYNADSVKGRFTISRDNAKNTVYLQMNSLKPEDTAVYYCAAAYRTQIYRNEYWGQGTQVTVSS,low polyreactivity
13,QVHLVETGGGLVQAGGSLRLSCAASGSIFFVYAMGCYRPAPGKERELVAAISNDGSTNYADSVKGRFTISRDNAKNTVYLQMNCLIPEDTAVYYCAKDTRTKYDYWGQGTQVTVSS,low polyreactivity
14,QVQLVESAGGLVQAGGSLRLSCAASGRTLTFKTMGWYRQAPGKERELVAGISYSGGSTYYADSVKGRFTISRDNAKNTVYLQMNSLKPEDTAVYYCNAVRVYRRRYDSWGQGTKVTVSS,high polyreactivity
15,QVQLVESGGGLVQAGGSRRLSCAASGSISNRYAMGWYRPAPGKEREFVARIRRRGGSTNYADSVKGRFTISRDNAKKTVYLQMNSLKPEDTAVYYCNAYPYQLDYDYWGQGTQVTVSS,high polyreactivity
16,QVQLVESGGGLVQAGGSLSLSCAASGRTFIRNAMGWYRQAPRKEREVVAAINSCGITNYADSVNGRFTISRDNAKNTVDLQMNSLKPEDTAVYYCANTFQYYWFSLYDYWGQGTQVTVSS,low polyreactivity
17,QVQLVESGGGLVQAGGSLRLSCAASGIIFQLYAMGWYRQAPGKERELVASITLSGTTTYYADSVKGRVTISRDNAKNTVYLQMNSLKPEDTAVYYCAKEYYYWGQGTQVTVSS,low polyreactivity
18,QGQLVESVGGLVQAGVSLRLSCAASGRIFPSYAMGCYRPAPGKERELVAAISSSGGRTYYADSVKGRFTISRDNAKNTVYLQMNSLKPEDTAVYYCAARWVHYGVRYDYWGPGTQVTVSS,high polyreactivity
19,QVQLVESGGGLVQAGGSLRLSCAASGSIFVVYAMGWYRQAPGKERELVASIRTGGSTNYADSVKGRFTISRDNAKNTVYLQMNSLKPEDTAVYYCAAASWNSKRHYYVARYYYWGQGTQVTVSS,high polyreactivity
20,QVQLVESGGGLVQAGGSLRLSCAASGFTIGYYAMGWYRQAPGKERELVAAISWSGGRTYYAYSVKGRFTISRDNAKNTVYLQMNSLKPEDTAVYYCAADGQQTYSGYDYWGQGTQVTVSS,high polyreactivity
21,QVQLVESGGGLVQAGGSLRLSCAASGRTFYRYAMGWYRQAAGTERELVAAISRSGGSTYYADSVKGRFTISRDHAKYTVYLQMNSLKPQDTAVYYCAAGYDGYKQGGGGYWGQGTQVTVSS,high polyreactivity
